Measurements as given in patent publication US10087225B2, “Formulation of MK2 inhibitor peptides” (MOERAE MATRIX, INC., priority 2015, dated 2018).

How the values were obtained:
Assay in all cases: Kinase Profiling Assay
Format in all cases: biochemical
HIPK1(h) = HIPK1(h) (Homo sapiens, UniProt Q86Z02)
BTK(R28H)(h) = BTK(R28H)(h) (Homo sapiens, UniProt Q06187, R28H)
HIPK2(h) = HIPK2(h) (Homo sapiens, UniProt Q9H2X6)
DAPK1(h) = DAPK1(h) (Homo sapiens, UniProt P53355)
FGFR1(V561M)(h) = FGFR1(V561M)(h) (Homo sapiens, UniProt P11362, V561M)
MuSK(h) = molecular target: T1, MuSK(h) (Homo sapiens, UniProt O15146)
T1 sequence (O15146 24-869): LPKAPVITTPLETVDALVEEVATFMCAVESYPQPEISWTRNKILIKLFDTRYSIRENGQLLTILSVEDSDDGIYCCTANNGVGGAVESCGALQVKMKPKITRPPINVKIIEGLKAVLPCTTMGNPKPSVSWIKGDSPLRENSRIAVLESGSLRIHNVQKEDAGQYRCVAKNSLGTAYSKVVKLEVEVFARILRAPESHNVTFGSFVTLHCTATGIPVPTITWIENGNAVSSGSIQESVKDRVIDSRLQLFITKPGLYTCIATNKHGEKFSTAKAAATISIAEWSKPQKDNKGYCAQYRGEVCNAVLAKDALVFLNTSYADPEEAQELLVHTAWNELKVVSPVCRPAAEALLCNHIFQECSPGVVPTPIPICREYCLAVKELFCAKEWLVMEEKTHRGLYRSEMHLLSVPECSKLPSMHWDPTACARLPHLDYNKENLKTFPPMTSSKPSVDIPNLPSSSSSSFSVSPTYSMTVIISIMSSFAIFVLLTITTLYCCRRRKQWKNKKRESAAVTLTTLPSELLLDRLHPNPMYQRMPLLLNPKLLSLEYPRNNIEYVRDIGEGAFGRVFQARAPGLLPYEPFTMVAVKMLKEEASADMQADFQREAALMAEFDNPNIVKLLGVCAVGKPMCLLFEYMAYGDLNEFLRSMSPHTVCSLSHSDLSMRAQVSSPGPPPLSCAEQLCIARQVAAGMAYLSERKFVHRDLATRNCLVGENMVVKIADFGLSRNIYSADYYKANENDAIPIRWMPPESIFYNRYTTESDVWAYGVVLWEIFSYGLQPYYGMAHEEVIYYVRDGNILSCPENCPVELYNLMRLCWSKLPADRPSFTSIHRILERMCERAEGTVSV

cKit(D816H)(h) = cKit(D816H)(h) (Homo sapiens, UniProt P10721, D816H)
MINK(h) = MINK(h) (Homo sapiens, UniProt Q8N4C8)
TBK1(h) = molecular target: T2, TBK1(h) (Homo sapiens, UniProt Q9UHD2); details: 100 μM
T2 sequence (Q9UHD2 1-729): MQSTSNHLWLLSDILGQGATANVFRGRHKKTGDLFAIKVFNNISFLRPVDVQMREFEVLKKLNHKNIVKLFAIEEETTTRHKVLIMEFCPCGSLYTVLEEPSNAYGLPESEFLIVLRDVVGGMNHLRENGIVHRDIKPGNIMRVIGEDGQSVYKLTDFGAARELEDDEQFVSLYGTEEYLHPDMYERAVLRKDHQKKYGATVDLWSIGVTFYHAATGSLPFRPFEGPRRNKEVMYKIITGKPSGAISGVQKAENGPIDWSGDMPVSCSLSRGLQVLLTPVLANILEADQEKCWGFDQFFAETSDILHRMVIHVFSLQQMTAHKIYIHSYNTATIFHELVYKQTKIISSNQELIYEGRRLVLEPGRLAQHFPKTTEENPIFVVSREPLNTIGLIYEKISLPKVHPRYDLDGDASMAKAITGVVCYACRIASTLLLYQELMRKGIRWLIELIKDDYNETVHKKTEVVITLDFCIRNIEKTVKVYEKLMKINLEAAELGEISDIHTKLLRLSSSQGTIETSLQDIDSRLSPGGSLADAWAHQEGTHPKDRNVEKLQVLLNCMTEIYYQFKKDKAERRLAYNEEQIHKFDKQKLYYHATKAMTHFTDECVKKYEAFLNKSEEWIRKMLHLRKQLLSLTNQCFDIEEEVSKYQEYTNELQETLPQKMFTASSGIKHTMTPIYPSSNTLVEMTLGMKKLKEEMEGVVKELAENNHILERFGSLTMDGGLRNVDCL

Lyn(h) = Lyn(h) (Homo sapiens, UniProt P07948); details: 100 μM
Ret(V804L)(h) = Ret(V804L)(h) (Homo sapiens, UniProt P07949, V804L); details: 100 μM
PKCβI(h) = PKCβI(h) (Homo sapiens, UniProt P05771); details: 100 μM
JNK3(h) = JNK3(h) (Homo sapiens, UniProt P53779); details: 100 μM
PKCη(h) = PKCη(h) (Homo sapiens, UniProt P24723); details: 100 μM
Pim-1(h) = Pim-1(h) (Homo sapiens, UniProt P11309); details: 100 μM
EGFR(T790M,L858R)(h) = EGFR(T790M,L858R)(h) (Homo sapiens, UniProt P00533, L858R/T790M); details: 100 μM
NEK6(h) = NEK6(h) (Homo sapiens, UniProt Q9HC98); details: 100 μM
PKBα(h) = PKBα(h) (Homo sapiens, UniProt P31749); details: 100 μM
PDGFRβ(h) = PDGFRβ(h) (Homo sapiens, UniProt P09619); details: 100 μM
Ros(h) = Ros(h) (Homo sapiens, UniProt P08922); details: 100 μM
CaMKIδ(h) = CaMKIδ(h) (Homo sapiens, UniProt Q8IU85); details: 100 μM

Chain of PKBα(h) (P31749 whole entry): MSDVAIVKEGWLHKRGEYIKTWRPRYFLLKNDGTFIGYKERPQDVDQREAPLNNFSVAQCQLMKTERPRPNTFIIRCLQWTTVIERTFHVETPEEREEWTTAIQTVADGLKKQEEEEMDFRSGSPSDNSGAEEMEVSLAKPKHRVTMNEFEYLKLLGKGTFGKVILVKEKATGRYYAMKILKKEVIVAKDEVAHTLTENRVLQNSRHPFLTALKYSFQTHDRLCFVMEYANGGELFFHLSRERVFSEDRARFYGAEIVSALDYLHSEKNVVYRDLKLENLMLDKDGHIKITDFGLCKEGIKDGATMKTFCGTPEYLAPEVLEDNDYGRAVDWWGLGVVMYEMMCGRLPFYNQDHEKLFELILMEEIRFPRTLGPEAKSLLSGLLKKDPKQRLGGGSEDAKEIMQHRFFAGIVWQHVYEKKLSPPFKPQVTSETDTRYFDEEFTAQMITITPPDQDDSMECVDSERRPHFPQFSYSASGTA
Chain of PDGFRβ(h) (P09619 33-1106): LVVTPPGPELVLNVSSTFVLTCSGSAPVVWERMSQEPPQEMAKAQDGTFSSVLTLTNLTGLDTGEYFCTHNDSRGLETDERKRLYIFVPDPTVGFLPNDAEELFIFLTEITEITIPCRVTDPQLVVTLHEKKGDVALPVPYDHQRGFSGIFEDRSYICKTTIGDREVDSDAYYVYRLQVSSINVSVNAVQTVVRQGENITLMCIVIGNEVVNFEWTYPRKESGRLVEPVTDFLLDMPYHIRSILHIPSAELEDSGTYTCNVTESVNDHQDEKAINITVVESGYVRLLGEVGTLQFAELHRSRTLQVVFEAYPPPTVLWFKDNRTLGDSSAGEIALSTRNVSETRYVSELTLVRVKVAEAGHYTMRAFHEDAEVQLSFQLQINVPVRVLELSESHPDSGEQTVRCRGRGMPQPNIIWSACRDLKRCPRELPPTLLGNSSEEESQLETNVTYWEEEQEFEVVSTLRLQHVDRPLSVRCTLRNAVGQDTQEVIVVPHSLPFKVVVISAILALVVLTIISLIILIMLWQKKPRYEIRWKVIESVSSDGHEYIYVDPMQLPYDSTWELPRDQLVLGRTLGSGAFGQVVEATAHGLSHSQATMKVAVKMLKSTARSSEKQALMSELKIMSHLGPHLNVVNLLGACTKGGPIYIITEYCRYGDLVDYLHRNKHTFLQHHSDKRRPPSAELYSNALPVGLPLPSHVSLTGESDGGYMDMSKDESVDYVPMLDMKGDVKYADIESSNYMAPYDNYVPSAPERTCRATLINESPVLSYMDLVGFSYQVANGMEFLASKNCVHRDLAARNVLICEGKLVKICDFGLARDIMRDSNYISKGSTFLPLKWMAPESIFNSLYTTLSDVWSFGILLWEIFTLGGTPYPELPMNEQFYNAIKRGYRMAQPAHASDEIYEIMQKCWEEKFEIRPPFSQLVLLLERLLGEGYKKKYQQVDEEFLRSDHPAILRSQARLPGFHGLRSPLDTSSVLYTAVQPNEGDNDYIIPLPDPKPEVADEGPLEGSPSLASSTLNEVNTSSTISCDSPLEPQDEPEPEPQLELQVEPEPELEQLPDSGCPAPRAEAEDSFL
Chain of PKCη(h) (P24723 whole entry): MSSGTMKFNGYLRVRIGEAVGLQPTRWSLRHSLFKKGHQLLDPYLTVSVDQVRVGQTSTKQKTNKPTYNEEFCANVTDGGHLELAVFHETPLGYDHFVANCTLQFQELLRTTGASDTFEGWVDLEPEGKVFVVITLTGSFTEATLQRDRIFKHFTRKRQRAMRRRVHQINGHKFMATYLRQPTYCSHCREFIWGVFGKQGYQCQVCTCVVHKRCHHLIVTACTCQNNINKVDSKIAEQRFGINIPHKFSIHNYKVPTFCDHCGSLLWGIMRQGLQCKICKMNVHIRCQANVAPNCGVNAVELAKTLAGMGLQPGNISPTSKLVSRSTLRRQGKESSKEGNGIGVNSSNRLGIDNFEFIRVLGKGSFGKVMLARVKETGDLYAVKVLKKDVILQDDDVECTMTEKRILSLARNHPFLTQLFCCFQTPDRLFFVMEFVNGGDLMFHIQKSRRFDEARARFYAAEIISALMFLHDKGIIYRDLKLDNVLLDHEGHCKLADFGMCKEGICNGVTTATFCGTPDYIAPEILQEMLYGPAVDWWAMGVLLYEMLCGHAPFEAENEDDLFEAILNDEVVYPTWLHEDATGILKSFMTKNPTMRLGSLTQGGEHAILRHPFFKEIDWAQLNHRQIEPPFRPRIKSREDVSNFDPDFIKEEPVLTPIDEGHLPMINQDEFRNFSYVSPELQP
Chain of MINK(h) (Q8N4C8 whole entry): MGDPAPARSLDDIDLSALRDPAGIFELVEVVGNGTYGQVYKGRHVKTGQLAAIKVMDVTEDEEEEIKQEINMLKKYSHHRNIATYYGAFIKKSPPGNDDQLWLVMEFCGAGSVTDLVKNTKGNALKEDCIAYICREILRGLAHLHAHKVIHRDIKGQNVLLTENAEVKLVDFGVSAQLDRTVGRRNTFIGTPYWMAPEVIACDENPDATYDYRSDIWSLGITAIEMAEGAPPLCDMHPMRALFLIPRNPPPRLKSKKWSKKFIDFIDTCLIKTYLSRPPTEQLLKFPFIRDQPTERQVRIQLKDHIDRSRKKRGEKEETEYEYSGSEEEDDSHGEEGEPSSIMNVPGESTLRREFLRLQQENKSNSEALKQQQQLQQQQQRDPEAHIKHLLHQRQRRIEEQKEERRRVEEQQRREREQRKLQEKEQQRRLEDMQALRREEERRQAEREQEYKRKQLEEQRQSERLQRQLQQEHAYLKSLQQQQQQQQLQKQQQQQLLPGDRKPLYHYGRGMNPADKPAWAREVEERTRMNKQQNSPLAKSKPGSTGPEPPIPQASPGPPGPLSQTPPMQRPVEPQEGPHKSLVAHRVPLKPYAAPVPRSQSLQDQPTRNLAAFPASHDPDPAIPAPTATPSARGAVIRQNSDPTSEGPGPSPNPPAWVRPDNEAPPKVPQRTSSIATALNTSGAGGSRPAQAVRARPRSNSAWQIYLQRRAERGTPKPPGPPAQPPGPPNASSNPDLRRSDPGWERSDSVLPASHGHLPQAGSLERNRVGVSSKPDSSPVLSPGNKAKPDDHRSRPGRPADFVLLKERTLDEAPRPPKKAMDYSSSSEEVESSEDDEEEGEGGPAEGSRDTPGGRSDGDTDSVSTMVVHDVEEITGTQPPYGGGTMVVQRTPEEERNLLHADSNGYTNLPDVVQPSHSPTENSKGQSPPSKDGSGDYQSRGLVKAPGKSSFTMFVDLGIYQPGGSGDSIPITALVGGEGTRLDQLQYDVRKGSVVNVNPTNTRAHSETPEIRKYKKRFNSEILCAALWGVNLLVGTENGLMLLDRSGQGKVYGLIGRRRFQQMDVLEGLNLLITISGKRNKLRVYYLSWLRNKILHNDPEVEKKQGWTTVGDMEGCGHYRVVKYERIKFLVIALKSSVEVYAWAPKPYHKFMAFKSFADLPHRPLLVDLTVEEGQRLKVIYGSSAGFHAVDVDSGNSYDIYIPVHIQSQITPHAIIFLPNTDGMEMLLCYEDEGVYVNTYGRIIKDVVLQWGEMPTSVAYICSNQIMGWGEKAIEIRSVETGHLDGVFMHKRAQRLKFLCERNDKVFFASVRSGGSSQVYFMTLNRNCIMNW
Chain of FGFR1(V561M)(h) (P11362 22-822 V561M): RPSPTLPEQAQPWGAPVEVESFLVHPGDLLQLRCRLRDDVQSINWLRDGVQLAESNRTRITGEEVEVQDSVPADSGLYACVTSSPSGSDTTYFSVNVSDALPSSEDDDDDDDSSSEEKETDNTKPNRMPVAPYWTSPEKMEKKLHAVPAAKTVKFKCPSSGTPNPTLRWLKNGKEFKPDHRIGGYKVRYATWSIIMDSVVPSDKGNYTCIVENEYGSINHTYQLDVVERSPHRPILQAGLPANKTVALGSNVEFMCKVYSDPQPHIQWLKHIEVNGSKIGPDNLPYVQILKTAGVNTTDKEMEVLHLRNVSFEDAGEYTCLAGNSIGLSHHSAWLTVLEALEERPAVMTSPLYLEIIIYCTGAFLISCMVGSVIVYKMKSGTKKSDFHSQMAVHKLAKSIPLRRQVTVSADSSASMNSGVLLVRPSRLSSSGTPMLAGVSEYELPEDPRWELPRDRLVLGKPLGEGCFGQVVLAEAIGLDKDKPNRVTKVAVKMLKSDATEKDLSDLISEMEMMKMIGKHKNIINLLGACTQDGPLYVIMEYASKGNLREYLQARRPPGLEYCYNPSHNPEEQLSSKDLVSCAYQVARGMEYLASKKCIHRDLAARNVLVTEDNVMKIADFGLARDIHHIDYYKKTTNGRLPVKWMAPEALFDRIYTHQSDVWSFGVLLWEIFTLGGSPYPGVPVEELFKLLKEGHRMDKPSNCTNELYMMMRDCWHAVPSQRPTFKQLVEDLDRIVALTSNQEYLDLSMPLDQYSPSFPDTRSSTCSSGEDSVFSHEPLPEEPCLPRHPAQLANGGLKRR
Chain of Lyn(h) (P07948 whole entry): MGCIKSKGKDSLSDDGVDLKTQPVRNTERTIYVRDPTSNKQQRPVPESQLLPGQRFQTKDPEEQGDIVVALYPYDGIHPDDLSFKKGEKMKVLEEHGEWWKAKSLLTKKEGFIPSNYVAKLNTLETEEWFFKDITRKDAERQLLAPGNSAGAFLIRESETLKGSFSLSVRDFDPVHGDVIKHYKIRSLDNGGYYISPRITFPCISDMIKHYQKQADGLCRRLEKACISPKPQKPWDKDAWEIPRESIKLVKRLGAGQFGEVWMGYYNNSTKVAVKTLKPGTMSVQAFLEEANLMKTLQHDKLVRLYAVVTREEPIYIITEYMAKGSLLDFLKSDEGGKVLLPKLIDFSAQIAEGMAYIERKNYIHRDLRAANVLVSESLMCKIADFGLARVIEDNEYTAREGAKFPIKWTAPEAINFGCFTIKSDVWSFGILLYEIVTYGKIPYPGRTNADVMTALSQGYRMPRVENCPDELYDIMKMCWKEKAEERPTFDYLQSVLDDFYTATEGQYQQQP

Substance	% activity (TBK1(h))	% activity (Lyn(h))	% activity (Ret(V804L)(h))	% activity (PKCβI(h))	% activity (JNK3(h))	% activity (PKCη(h))	% activity (Pim-1(h))	% activity (EGFR(T790M,L858R)(h))	% activity (NEK6(h))	% activity (PKBα(h))	% activity (PDGFRβ(h))	% activity (Ros(h))	% activity (CaMKIδ(h))	other results
H-YARAAARQARAKALARQLGVAA-OH [MMI-0100]	–	–	–	–	–	–	–	–	–	–	–	–	–	activity at 100 µM (HIPK1(h)): 94%; activity at 100 µM (BTK(R28H)(h)): 91%; activity at 100 µM (HIPK2(h)): 98%; activity at 100 µM (DAPK1(h)): 97%; activity at 100 µM (FGFR1(V561M)(h)): 108%; activity at 100 µM (MuSK(h)): 85%; activity at 100 µM (cKit(D816H)(h)): 79%; activity at 100 µM (MINK(h)): 96%
HRRIKAWLKKIKALARQLGVAA (Mammalian) [MMI-0500]	16%	31%	20%	1%	171%	45%	0%	53%	49%	30%	40%	150%	0%	% activity (HIPK1(h); 100 μM): 47%; % activity (BTK(R28H)(h); 100 μM): 10%; % activity (HIPK2(h); 100 μM): 38%; % activity (DAPK1(h); 100 μM): 0%; % activity (MuSK(h); 100 μM): 27%; % activity (cKit(D816H)(h); 100 μM): 194%; % activity (MINK(h); 100 μM): 5%
YARAAARQARAKALNRQLGVA (Mammalian) [MMI-0200]	98%	98%	100%	98%	90%	101%	18%	108%	98%	110%	137%	86%	47%	% activity (FGFR1(V561M)(h); 100 μM): 72%
